Source: patent US20250051407A1, “De novo designed sequence-specific DNA binding proteins” (University of Washington, priority 2023, published 2025)

What was measured:
[1] = test system: DBP48-TetR (synthetic construct); test: cell_activity; conditions: E. coli YFP NOT gate, 1 mM IPTG
[2] = test system: DBP57-TetR (synthetic construct); test: cell_activity; conditions: E. coli YFP NOT gate, 1 mM IPTG
[3] = test system: synTF-specific cis-regulatory elements (CRE) in HEK293T cells; test: Transcriptional activation by synTFs in HEK293T cells (ENGRAM); type: cell-based; conditions: DBP fused to GCN4 dimerization domain and VP64; HEK293T cells expressing PEmax; dependent on spacing between motifs
Text: Next, we investigated whether the DBPs can be used as activators in mammalian cells. A set of synthetic transcription factors (synTFs) were created by fusing the GCN4 dimerization domain and the VP64 activation domain to the C-termini of DBPs 9, 35opt, 48, 57, and 60 which recognize 3 unique motifs. The dimerization domain allows the DBPs to recognize a palindromic target sequence consisting of two binding motifs, improving the binding affinity to the DNA sequence (FIG. 2C). We created synTF specific cis-regulatory elements (CRE) with 4 repeats spaced by 6 bp to drive the expression of downstream genes, and used the ENGRAM (43) recording technology to measure the activity of the synTFs in HEK293 cells. In ENGRAM, each CRE drives the expression of a uniquely barcoded pegRNA, which upon expression is recorded into the DNA TAPE at the HEK3 locus by prime-editor (PEmax); the activity of individual synTFs can be measured as the abundance of the barcode on the DNA TAPE (FIG. 2C). We first tested 3 different spacings-1 bp, 3 bp, and 5 bp-between the palindromic binding motifs to maximize the recorder activity. 3 synTF specific recorders and 1 TCF-LEF-recorder (negative control) were mixed with ratio 2:2:2:1 and co-transfected with synTFs into the HEK293T cells expressing PEmax. Cells were harvested and analyzed 2 days post-transfection. After analyzing the barcode abundance on the DNA TAPE, we observed 3-5 fold activation for DBP9/DBP35 and DBP57/DBP60 (FIG. 2D).
HEK293T cells expressing PEmax™ were cultured in DMEM High glucose (GIBCO), supplemented with 10% Fetal Bovine Serum (Rocky Mountain Biologicals) and 1% penicillin-streptomycin (GIBCO). Cells were grown with 5% CO2 at 37° C. 1×10^5 cells were seeded on a 48-well plate a day before transfection. Enhancer plasmid and binder plasmid were mixed with a ratio of 2:1. Enhancer variants and background control were mixed with a ratio of 2:2:2:1. A total of 300 ng of plasmid were transfected using Lipofectamine™ 3000 (ThermoFisher, L3000015), following the manufacturer's protocol. Cells were harvested 2 days post-transfection. Genomic DNA was extracted based on the protocol described earlier (43). Briefly, cells were lysed using freshly prepared lysis buffer (10 mM Tris-HCl, pH 7.5; 0.05% SDS; 25 µg/ml protease (ThermoFisher)) for each well. The genomic DNA mixture was incubated at 50° C. for 1 h, followed by an 80° C. enzyme inactivation step for 30 min. The DNA TAPE was amplified from the genomic DNA directly for next generation sequencing. Recorded information was extracted via custom analysis code. Each enhancer has a unique barcode representing its activity. Transcription activation was measured as the fold change in the barcode abundance relative to the negative control barcode. All measurements were performed in triplicates.

[4] = test system: biotinylated dsDNA oligo (designed DNA target); test: Clonal yeast surface display binding to biotinylated dsDNA oligo
Text: For each set of designs, synthetic oligonucleotides (230 base pairs) encoding the 50-65-residue designed proteins were ordered in a single pool and cloned into a yeast surface-expression vector. Cells containing designs that bound each DNA target were enriched by several rounds of fluorescence-activated cell sorting (FACS) using fluorescently labeled target dsDNA oligos. The naive and sorted populations for each DNA target were deep sequenced, and the frequency of each design in the starting population and after each sort was determined. From this analysis, we identified 97 designs that were substantially enriched (>100×) in pools sorted with their intended dsDNA target compared to the naive library. […]
For yeast display characterization of individual designs, including competition assays, DNA sequences encoding the proteins of interest were purchased as Integrated DNA Technologies (IDT) E-Blocks™, transformed into yeast cells, and incubated in 96 well culture plates. […] For each individual sample, gating of the expression population was performed using the CytoFlow™ Gaussian Mixture Model and the ratio of SAPE channel intensity to FITC channel intensity (binding signal/expression signal) was calculated for all gated expression events of the sample.

[5] = test system: 13 unique dsDNA targets; test: All-by-all yeast surface display screen of DBP design hits; type: binding
Protocol: And an all-by-all screen of DBP design hits to 13 unique dsDNA targets was performed (FIG. 4, table 2). […] To try to understand these observed binding preferences, each tested DNA sequence was threaded onto each design complex model at all possible base pair alignments, the alternative complex models were relaxed with Rosetta™, and the model with the most favorable Rosetta™ ΔΔG was selected.
Saccharomyces cerevisiae EBY100 strain cultures were grown in C-Trp-Ura medium supplemented with 2% (w/v) glucose. For induction of expression, yeast cells were centrifuged at 6,000 g for 1 min and resuspended in SGCAA medium supplemented with 0.2% (w/v) glucose at the cell density of 1×10^7 cells per ml and induced at 30° C. for 16-24 h. Cells were washed with PBSF (PBS with 1% (w/v) BSA) and labeled with biotinylated targets using two labeling methods: with-avidity and without-avidity labeling. For the with-avidity method, the cells were incubated with biotinylated target, together with anti-c-Myc fluorescein isothiocyanate (FITC, Miltenyi Biotech) and streptavidin-phycoerythrin (SAPE, ThermoFisher). The concentration of SAPE in the with-avidity method was used at one-quarter of the concentration of the biotinylated targets. For the without-avidity method, the cells were first incubated with biotinylated targets, washed and secondarily labeled with SAPE and FITC.
(§1) For yeast display characterization of individual designs, including competition assays, DNA sequences encoding the proteins of interest were purchased as Integrated DNA Technologies (IDT) E-Blocks™, transformed into yeast cells, and incubated in 96 well culture plates. Labeling with biotinylated dsDNA targets and SAPE/FITC was performed in a 96 well plate format. For yeast display competition assays, labeling was performed without avidity using 1 μM biotinylated dsDNA duplex oligos and an excess of 8 μM non-biotinylated competitor dsDNA duplex oligos. […] Flow cytometry analysis was performed with an Attune NxT™ flow cytometer with autosampler. Flow cytometry data analysis was performed using custom python code and the CytoFlow™ python package. For each individual sample, gating of the expression population was performed using the CytoFlow™ Gaussian Mixture Model and the ratio of SAPE channel intensity to FITC channel intensity (binding signal/expression signal) was calculated for all gated expression events of the sample.

[6] = test system: biotinylated target dsDNA with non-biotinylated competitor dsDNA; test: Yeast display competition assay with base-substituted competitor dsDNA; type: binding
Text: We used a yeast display competition assay to characterize the DNA binding site specificity of a subset of the designs (FIG. 1A-E, left; FIG. 5). Addition of non-biotinylated competitor dsDNA to biotinylated target sequence reduced binding signal by flow cytometry (FIG. 1A-E, middle). […] For example, in DBP6 (FIG. 1A) R31 and R36 in the design model form bidentate hydrogen bonds with the guanines of base pair positions G12 and C9, respectively, while T32 forms a hydrogen bond with C10.
as §1

[7] = test system: synthetic promoter containing the designed DBP binding sites controlling YFP; test: Transcriptional repression assay (NOT gate, YFP) in E. coli; type: cell-based, Escherichia coli; conditions: IPTG induction (1 mM), flow cytometry
Text: We next tested the ability of the designed DBPs to function in cells to regulate transcription. We constructed candidate NOT gates (38) to assay transcriptional repression in Escherichia coli, where the input is a designed DBP under control of the IPTG-inducible PTac promoter and the output is yellow fluorescent protein (YFP) expression driven by a promoter incorporating each DBP's DNA binding site. […] To increase avidity and bulk, we fused the DBPs to the homodimerization domain of the TetR protein (39), using RFdiffusion (40) and ProteinMPNN sequence design to generate rigid linkers that orient the DBP domain of each dimer unit on a DNA target containing two palindromic binding sites. For DBPs 48, 69, and 57, we selected 96 TetR fusions for experimental characterization in the NOT gate circuit. Upon initial screening, we observed modest repression for several designs and selected two for further validation (one incorporating DBP48, the other DBP57) (FIG. 8). […]

In the case of “GGCGTCAGGTGGACGCAGATTGACAGCGTCAGGTGGACGCTTATAATGAGCACTTCC (double strand) [PDBP48 synthetic promoter]”, the activity (fold repression) [1] is reported as 3.4.

“TCTGGATAGTGTATCCAGATTGACATCTGGAAGTATATCCAGATAATGAGCACTTCC (double strand) [PDBP57 synthetic promoter]” showed an activity (fold repression) [2] of 8.1.

B1: DBP35opt: optimized DBP35 combining R33N, K18V and P42Q; sequence matches Table 1 row SEQ ID NO: 50, DNA target B (protein)
chain: GFGRAVKEKRKELGLTQVEFAEKAGLSRRTIINIERGYIVPQKATKEKIAKALGTSVEELEQA
B1 was tested, and the “Fold activation of synTFs measured as normalized barcode abundance in the DNA TAPE” value [3] was 3-5 fold, the “Detectable binding down to (dsDNA concentration)” value [4] was about 150 pM and the Off-target binding ([5]; yeast display screen against the 13 DNA targets, versus original DBP35) was “strongly decreased off-target binding”. For the same molecule, the “Number of base positions of specificity” value [6] was 7 base positions.

B2: DBP57: designed DNA-binding protein, SEQ ID NO: 31, DNA target E (protein)
chain: MVLTPMERIGEFIKRARREAGLTQRELAELAGVGQSTVSRIEKGEKCSPELVEKILEALRKV
In the case of B2, the “Fold activation of synTFs measured as normalized barcode abundance in the DNA TAPE” value [3] is reported as 3-5 fold, the “Number of the 13 tested DNA target sequences preferentially bound” value ([5]; 1 μM dsDNA with avidity, including designed target sequence) is reported as “less than 3” and the “Binding specificity versus design models” value ([5]; all-by-all screen with Rosetta-predicted motifs) is reported as “bound with specificity closely consistent with the design models”. The “Binding to initial design target” value ([5]; yeast surface display, 1 μM dsDNA with avidity) was “bound strongly”, the “Binding to alternate target sequence” value ([5]; yeast surface display, 1 μM dsDNA with avidity, alternate target H (DBP90), D (DBP48), C (DBP57)) was “bound strongly” and the “Fold repression of YFP by single DBP domains and tandem linked DBP domains” value [7] was “not observed”.
